Source: article PMC7084690, “N-terminal Backbone Pairing Shifts in CCL5-^12AAA^14 Dimer Interface: Structural Significance of the FAY Sequence” (International Journal of Molecular Sciences, 2020)
One block for each binder: values may come before it.

Assays:
[1] = molecular target: T1, CCL5-F12A (human), P13501; assay: NMR titration; pH titration followed by 1H,15N-HSQC; this point pH 3.2; 0.2 mM 15N-labelled protein, 25 mM sodium acetate, 150 mM NaCl, 10% D2O, 298 K; monomer to dimer; conditions: remark: other sources report otherwise
T1 chain: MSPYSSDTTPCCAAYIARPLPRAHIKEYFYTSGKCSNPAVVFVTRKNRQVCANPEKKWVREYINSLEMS

[2] = molecular target: the molecule itself; assay: NMR backbone relaxation (15N-R1, 15N-R2, 1H-15N NOE); pH 3.2, 298 K, 600 MHz, in the absence or presence of 180 mM ammonium sulfate; oligomeric state from R1, R2 and the R2/R1 ratio; monomer to dimer
[3] = molecular target: the molecule itself; assay: NMR titration; pH titration followed by 1H,15N-HSQC; this point pH 5.0 (for the wild type maintained until pH 6.0); 0.2 mM 15N-labelled protein, 25 mM sodium acetate, 150 mM NaCl, 10% D2O, 298 K; dimers to soluble oligomers, read from the loss of resonance intensity
[4] = molecular target: the molecule itself; assay: NMR titration; pH titration followed by 1H,15N-HSQC; this point pH 3.2; 0.2 mM 15N-labelled protein, 25 mM sodium acetate, 150 mM NaCl, 10% D2O, 298 K; monomer to dimer

stoichiometry N [1]: 2
B1: CCL5-F12A, P13501 24-91 (natural protein)
chain: MSPYSSDTTPCCAAYIARPLPRAHIKEYFYTSGKCSNPAVVFVTRKNRQVCANPEKKWVREYINSLEMS

B2: CCL5-12AAA14 (natural protein, human)
chain: MSPYSSDTTPCCAAAIARPLPRAHIKEYFYTSGKCSNPAVVFVTRKNRQVCANPEKKWVREYINSLEMS
notes: starting Met residue (M0) that precedes residues 1-68 of the mature CCL5; numbers count on: the mature protein; 15N- or 15N,13C-labelled for the NMR experiments; In the crystal the first five N-terminal residues were not modelled; also called 12AAA14 mutant
stoichiometry N [2]: 2

B3: CCL5-Y14A (natural protein, human)
chain: MSPYSSDTTPCCFAAIARPLPRAHIKEYFYTSGKCSNPAVVFVTRKNRQVCANPEKKWVREYINSLEMS
notes: starting Met residue (M0) that precedes residues 1-68 of the mature CCL5; CCL5 (RANTES), human, residues 1-68 of the mature CCL5, with Y14A; numbers count on: the mature protein; 15N-labelled for the NMR experiments
binding result [3]: binds

B4: human CC-type chemokine ligand 5 (CCL5) (natural protein)
chain: MSPYSSDTTPCCFAYIARPLPRAHIKEYFYTSGKCSNPAVVFVTRKNRQVCANPEKKWVREYINSLEMS
notes: starting Met residue (M0) that precedes residues 1-68 of the mature CCL5; CCL5 (RANTES), human, residues 1-68 of the mature CCL5; numbers count on: the mature protein; 15N-labelled for the NMR experiments; vector pET43.1a(+); also called RANTES; native CCL5
stoichiometry N [4]: 2
